Data reported in the supplement of paper PMC11316812.
± gives the standard deviation of the averaged measurements.

Experiments:
[1] = tested on: hTERT-HMEC; test: percentage of EdU-negative (G0-arrested) nuclei per well, 72 h; higher = more G0 arrest; details: reference: sequence is the full UniProt precursor, the tested protein was the secreted form or ectodomain
[2] = tested on: MCF7; test: as above; details: reference: sequence is the full UniProt precursor, the tested protein was the secreted form or ectodomain
[3] = protein concentration 0.03054 µM
[4] = protein concentration 0.3054 µM
[5] = protein concentration 0.0225 µM
[6] = protein concentration 0.03125 µM
[7] = protein concentration 0.3125 µM
[8] = protein concentration 0.0187725 µM
[9] = protein concentration 0.187725 µM
[10] = protein concentration 0.0286875 µM
[11] = protein concentration 0.286875 µM
[12] = protein concentration 0.0095 µM
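Further: secreted proteins added to cultured cells, EdU pulse at the end, nuclei found by Hoechst imaging, EdU status from nuclear versus surrounding ring intensity ratio, PBS as neutral control.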

Sequence: MKATIILLLLAQVSWAGPFQQRGLFDFMLEDEASGIGPEVPDDRDFEPSLGPVCPFRCQCHLRVVQCSDLGLDKVPKDLPPDTTLLDLQNNKITEIKDGDFKNLKNLHALILVNNKISKVSPGAFTPLVKLERLYLSKNQLKELPEKMPKTLQELRAHENEITKVRKVTFNGLNQMIVIELGTNPLKSSGIENGAFQGMKKLSYIRIADTNITSIPQGLPPSLTELHLDGNKISRVDAASLKGLNNLAKLGLSFNSISAVDNGSLANTPHLRELHLDNNKLTRVPGGLAEHKYIQVVYLHNNNISVVGSSDFCPPGHNTKKASYSGVSLFSNPVQYWEIQPSTFRCVYVRSAIQLGNYK
- percentage of EdU-negative [1, 3]: 5.5 ± 0.71%
- percentage of EdU-negative [1, 4]: 6.07 ± 0.48%
- percentage of EdU-negative [2, 3]: 24 ± 3.8%
- percentage of EdU-negative [2, 4]: 26.5 ± 1.1%

Sequence: MKAWGTVVVTLATLMVVTVDAKIYERCELAARLERAGLNGYKGYGVGDWLCMAHYESGFDTAFVDHNPDGSSEYGIFQLNSAWWCDNGITPTKNLCHMDCHDLLNRHILDDIRCAKQIVSSQNGLSAWTSWRLHCSGHDLSEWLKGCDMHVKIDPKIHP [Q96QH8]
- percentage of EdU-negative [1, 5]: 6.28 ± 1.5%
- percentage of EdU-negative ([1]; protein concentration 0.225 µM): 7.91 ± 0.26%
- percentage of EdU-negative [2, 5]: 25.8 ± 1.2%
- percentage of EdU-negative ([2]; protein concentration 0.225 µM): 25.03 ± 0.22%

Sequence: MKENVASATVFTLLLFLNTCLLNGQLPPGKPEIFKCRSPNKETFTCWWRPGTDGGLPTNYSLTYHREGETLMHECPDYITGGPNSCHFGKQYTSMWRTYIMMVNATNQMGSSFSDELYVDVTYIVQPDPPLELAVEVKQPEDRKPYLWIKWSPPTLIDLKTGWFTLLYEIRLKPEKAAEWEIHFAGQQTEFKILSLHPGQKYLVQVRCKPDHGYWSAWSPATFIQIPSDFTMNDTTVWISVAVLSAVICLIIVWAVALKGYSMVTCIFPPVPGPKIKGFDAHLLEKGKSEELLSALGCQDFPPTSDYEDLLVEYLEVDDSEDQHLMSVHSKEHPSQGMKPTYLDPDTDSGRGSCDSPSLLSEKCEEPQANPSTFYDPEVIEKPENPETTHTWDPQCISMEGKIPYFHAGGSKCSTWPLPQPSQHNPRSSYHNITDVCELAVGPAGAPATLLNEAGKDALKSSQTIKSREEGKATQQREVESFHSETDQDTPWLLPQEKTPFGSAKPLDYVEIHKVNKDGALSLLPKQRENSGKPKKPGTPENNKEYAKVSGVMDNNILVLVPDPHAKNVACFEESAKEAPPSLEQNQAEKALANFTATSSKCRLQLGGLDYLDPACFTHSFH
- percentage of EdU-negative [1, 6]: 4.8 ± 0.32%
- percentage of EdU-negative [1, 7]: 5.37 ± 0.74%
- percentage of EdU-negative [2, 6]: 26.2 ± 3.5%
- percentage of EdU-negative [2, 7]: 26.4 ± 0.51%

Sequence: MKENYCLQAALVCLGMLCHSHAFAPERRGHLRPSFHGHHEKGKEGQVLQRSKRGWVWNQFFVIEEYTGPDPVLVGRLHSDIDSGDGNIKYILSGEGAGTIFVIDDKSGNIHATKTLDREERAQYTLMAQAVDRDTNRPLEPPSEFIVKVQDINDNPPEFLHETYHANVPERSNVGTSVIQVTASDADDPTYGNSAKLVYSILEGQPYFSVEAQTGIIRTALPNMDREAKEEYHVVIQAKDMGGHMGGLSGTTKVTITLTDVNDNPPKFPQSVYQMSVSEAAVPGEEVGRVKAKDPDIGENGLVTYNIVDGDGMESFEITTDYETQEGVIKLKKPVDFETKRAYSLKVEAANVHIDPKFISNGPFKDTVTVKISVEDADEPPMFLAPSYIHEVQENAAAGTVVGRVHAKDPDAANSPIRYSIDRHTDLDRFFTINPEDGFIKTTKPLDREETAWLNITVFAAEIHNRHQEAKVPVAIRVLDVNDNAPKFAAPYEGFICESDQTKPLSNQPIVTISADDKDDTANGPRFIFSLPPEIIHNPNFTVRDNRDNTAGVYARRGGFSRQKQDLYLLPIVISDGGIPPMSSTNTLTIKVCGCDVNGALLSCNAEAYILNAGLSTGALIAILACIVILLVIVVLFVTLRRQKKEPLIVFEEEDVRENIITYDDEGGGEEDTEAFDIATLQNPDGINGFIPRKDIKPEYQYMPRPGLRPAPNSVDVDDFINTRIQEADNDPTAPPYDSIQIYGYEGRGSVAGSLSSLESATTDSDLDYDYLQNWGPRFKKLADLYGSKDTFDDDS
- percentage of EdU-negative [1, 5]: 5.18 ± 0.56%
- percentage of EdU-negative ([1]; protein concentration 0.225 µM): 9.88 ± 1.5%
- percentage of EdU-negative [2, 5]: 25.4 ± 0.51%
- percentage of EdU-negative ([2]; protein concentration 0.225 µM): 32.3 ± 2%

Sequence: MKEYVLLLFLALCSAKPFFSPSHIALKNMMLKDMEDTDDDDDDDDDDDDDDEDNSLFPTREPRSHFFPFDLFPMCPFGCQCYSRVVHCSDLGLTSVPTNIPFDTRMLDLQNNKIKEIKENDFKGLTSLYGLILNNNKLTKIHPKAFLTTKKLRRLYLSHNQLSEIPLNLPKSLAELRIHENKVKKIQKDTFKGMNALHVLEMSANPLDNNGIEPGAFEGVTVFHIRIAEAKLTSVPKGLPPTLLELHLDYNKISTVELEDFKRYKELQRLGLGNNKITDIENGSLANIPRVREIHLENNKLKKIPSGLPELKYLQIIFLHSNSIARVGVNDFCPTVPKMKKSLYSAISLFNNPVKYWEMQPATFRCVLSRMSVQLGNFGM [Q9BXN1]
- percentage of EdU-negative [1, 8]: 4.7 ± 0.51%
- percentage of EdU-negative [1, 9]: 4.97 ± 0.19%
- percentage of EdU-negative [2, 8]: 26.18 ± 0.19%
- percentage of EdU-negative [2, 9]: 26.9 ± 3.7%

Sequence: MKFFLLLFTIGFCWAQYSPNTQQGRTSIVHLFEWRWVDIALECERYLAPKGFGGVQVSPPNENVAIHNPFRPWWERYQPVSYKLCTRSGNEDEFRNMVTRCNNVGVRIYVDAVINHMSGNAVSAGTSSTCGSYFNPGSRDFPAVPYSGWDFNDGKCKTGSGDIENYNDATQVRDCRLVGLLDLALEKDYVRSKIAEYMNHLIDIGVAGFRLDASKHMWPGDIKAILDKLHNLNSNWFPAGSKPFIYQEVIDLGGEPIKSSDYFGNGRVTEFKYGAKLGTVIRKWNGEKMSYLKNWGEGWGFMPSDRALVFVDNHDNQRGHGAGGASILTFWDARLYKMAVGFMLAHPYGFTRVMSSYRWPRQFQNGNDVNDWVGPPNNNGVIKEVTINPDTTCGNDWVCEHRWRQIRNMVNFRNVVDGQPFTNWYDNGSNQVAFGRGNRGFIVFNNDDWTFSLTLQTGLPAGTYCDVISGDKINGNCTGIKIYVSDDGKAHFSISNSAEDPFIAIHAESKL
- percentage of EdU-negative [1, 5]: 6.12 ± 0.67%
- percentage of EdU-negative ([1]; protein concentration 0.225 µM): 7.06 ± 0.1%
- percentage of EdU-negative [2, 5]: 25 ± 4.2%
- percentage of EdU-negative ([2]; protein concentration 0.225 µM): 31.3 ± 2.5%

Sequence: MKFFLLLFTIGFCWAQYSPNTQQGRTSIVHLFEWRWVDIALECERYLAPKGFGGVQVSPPNENVAIYNPFRPWWERYQPVSYKLCTRSGNEDEFRNMVTRCNNVGVRIYVDAVINHMCGNAVSAGTSSTCGSYFNPGSRDFPAVPYSGWDFNDGKCKTGSGDIENYNDATQVRDCRLTGLLDLALEKDYVRSKIAEYMNHLIDIGVAGFRLDASKHMWPGDIKAILDKLHNLNSNWFPAGSKPFIYQEVIDLGGEPIKSSDYFGNGRVTEFKYGAKLGTVIRKWNGEKMSYLKNWGEGWGFVPSDRALVFVDNHDNQRGHGAGGASILTFWDARLYKMAVGFMLAHPYGFTRVMSSYRWPRQFQNGNDVNDWVGPPNNNGVIKEVTINPDTTCGNDWVCEHRWRQIRNMVIFRNVVDGQPFTNWYDNGSNQVAFGRGNRGFIVFNNDDWSFSLTLQTGLPAGTYCDVISGDKINGNCTGIKIYVSDDGKAHFSISNSAEDPFIAIHAESKL
- percentage of EdU-negative [1, 10]: 5.1 ± 0.51%
- percentage of EdU-negative [1, 11]: 11.4 ± 1.2%
- percentage of EdU-negative [2, 10]: 25.6 ± 0.39%
- percentage of EdU-negative [2, 11]: 26.4 ± 0.48%

Sequence: MKFQGPLACLLLALCLGSGEAGPLQSGEESTGTNIGEALGHGLGDALSEGVGKAIGKEAGGAAGSKVSEALGQGTREAVGTGVRQVPGFGVADALGNRVGEAAHALGNTGHEIGRQAEDVIRHGADAVRGSWQGVPGHNGAWETSGGHGIFGSQGGLGGQGQGNPGGLGTPWVHGYPGNSAGSFGMNPQGAPWGQGGNGGPPNFGTNTQGAVAQPGYGSVRASNQNEGCTNPPPSGSGGGSSNSGGGSGSQSGSSGSGSNGDNNNGSSSGGSSSGSSSGGSSGGSSGGSSGNSGGSRGDSGSESSWGSSTGSSSGNHGGSGGGNGHKPGCEKPGNEARGSGESGIQNSETSPGMFNFDTFWKNFKSKLGFINWDAINKNQVPPPSTRALLYFSRLWEDFKQNTPFLNWKAIIEGADASSLQKRAGRDDQNYNYNQHAYPTAYGGKYSVKTPAKGGVSPSSSASRVQPGLLQWVKFW [Q6E0U4]
- percentage of EdU-negative [1, 12]: 4.68 ± 0.29%
- percentage of EdU-negative ([1]; protein concentration 0.095 µM): 24.6 ± 4.2%
- percentage of EdU-negative [2, 12]: 27.8 ± 1.4%
- percentage of EdU-negative ([2]; protein concentration 0.095 µM): 27.7 ± 1.7%

Sequence: MKFSPAHYLLPLLPALVLSTRQDYEELEKQLKEVFKERSTILRQLTKTSRELDGIKVNLQSLKNDEQSAKTDVQKLLELGQKQREEMKSLQEALQNQLKETSEKAEKHQATINFLKTEVERKSKMIRDLQNENKSLKNKLLSGNKLCGIHAEESKKIQAQLKELRYGKKDLLFKAQQLTDLEQKLAVAKNELEKAALDRESQMKAMKETVQLCLTSVFRDQPPPPLSLITSNPTRMLLPPRNIASKLPDAAAKSKPQQSASGNNESSQVESTKEGNPSTTACDSQDEGRPCSMKHKESPPSNATAETEPIPQKLQMPPCSECEVKKAPEKPLTSFEGMAAREEKIL [Q86TE4]
- percentage of EdU-negative [1, 5]: 5.34 ± 0.34%
- percentage of EdU-negative ([1]; protein concentration 0.225 µM): 8.84 ± 1.3%
- percentage of EdU-negative [2, 5]: 26 ± 0.38%
- percentage of EdU-negative ([2]; protein concentration 0.225 µM): 30.1 ± 1.1%

Sequence: MKFTIVFAGLLGVFLAPALANYNINVNDDNNNAGSGQQSVSVNNEHNVANVDNNNGWDSWNSIWDYGNGFAATRLFQKKTCIVHKMNKEVMPSIQSLDALVKEKKLQGKGPGGPPPKGLMYSVNPNKVDDLSKFGKNIANMCRGIPTYMAEEMQEASLFFYSGTCYTTSVLWIVDISFCGDTVEN [Q9NS71]
- percentage of EdU-negative [1, 6]: 4.8 ± 0.55%
- percentage of EdU-negative [1, 7]: 5.56 ± 0.6%
- percentage of EdU-negative [2, 6]: 23 ± 2.2%
- percentage of EdU-negative [2, 7]: 25.4 ± 3.5%

Sequence: MKFTTLLFLAAVAGALVYAEDASSDSTGADPAQEAGTSKPNEEISGPAEPASPPETTTTAQETSAAAVQGTAKVTSSRQELNPLKSIVEKSILLTEQALAKAGKGMHGGVPGGKQFIENGSEFAQKLLKKFSLLKPWA [Q9GZZ8]
- percentage of EdU-negative [1, 5]: 4.93 ± 0.13%
- percentage of EdU-negative ([1]; protein concentration 0.225 µM): 5.83 ± 0.8%
- percentage of EdU-negative [2, 5]: 25.6 ± 1.3%
- percentage of EdU-negative ([2]; protein concentration 0.225 µM): 24.5 ± 0.39%
